According to PMC6479007, “Phycobilisomes Harbor FNRL in Cyanobacteria” (mBio, 2019):

B1: ferredoxin-NADP+ oxidoreductase, large isoform (FNRL) (enzyme, UniProt Q55318 1-413, looked up)
chain: MYSPGYVATSSRQSDAGNRLFVYEVIGLSQSTMTDGLDYPIRRSGSTFITVPLKRMNQEMRRITRMGGKIVSIKPLEGDSPLPHTEGIAKPSQSEGSGSEAVANPAPESNKTMTTTPKEKKADDIPVNIYRPKTPYIGKVLENYPLVREGAIGTVQHLTFDLSAGDLRYLEGQSIGIIPPGEDDKGKPHKLRLYSIASTRHGDFGDDKTVSLCVRQLEYQNEAGETVQGVCSTYLCNIKEGDDIAITGPVGKEMLLPPDEDANIVMLATGTGIAPFRAFLWRMFKEQHEDYKFKGLAWLIFGIPKSENILYKDDLEKMAAEFPDNFRLTYAISREQQNAEGGRMYIQHRVAENAEELWNLMQNPKTHTYMCGLKGMEPGIDEAFTALAEQNGKEWTTFQREMKKEHRWHVETY
modifications: acetylation on the N terminus in a part of the molecules (6% in CpcG-PBS, 12% in CpcL-PBS)
notes: ferredoxin-NADP+ oxidoreductase, large isoform FNRL, Synechocystis sp; PCC 6803, slr1643; The small FNR isoform of the same gene is not meant; also called large FNR; Fd-NADP+ oxidoreductase; source: endogenous, Synechocystis 6803 wild-type and ΔAB cells; isolated with the phycobilisomes on a sucrose gradient

Key:
[1] = target: B1; experiment: cross-linking; isolated CpcG-PBS and CpcL-PBS (partners co-purified in the native complex), 0.1 uM in 0.2 M K-phosphate, 1:1 BS3-H12/D12, 10 min in the dark at room temperature, cross-linker/PBS 10:1, 50:1 and 100:1; LysC and trypsin digestion, LC-MS/MS, ICC-CLASS and pLink; conditions: both partners purified
[2] = target: T1, CpcL-PBS (CpcL-type phycobilisome, without allophycocyanin) (Synechocystis sp. strain PCC 6803 …, UniProt Q54715 1-162; Q54714 1-172; P73203 1-291; P73204 1-273; P73202 1-83; P74625 …); experiment: co-sedimentation; step-gradient sucrose density ultracentrifugation (370,000 x g overnight) of broken cells in 0.8 M K-phosphate pH 7.5 after 2% Triton X-100; blue bands analysed by SDS-PAGE (CBB R-250) and by trypsin digestion with LC-MS/MS label-free quantification (PEAKS; Protein Metrics); conditions: partners not purified
T1 construct: phycocyanin alpha subunit CpcA, Synechocystis sp; PCC 6803; phycocyanin beta subunit CpcB, Synechocystis sp; rod linker protein CpcC1, Synechocystis sp; rod linker protein CpcC2, Synechocystis sp; rod-capping linker CpcD, Synechocystis sp; PCC 6803, ssl3093; CpcL (formerly CpcG2), Synechocystis sp; PCC 6803, sll1471; the first methionine is removed posttranslationally, threonine is the first …

Row | Binder | binding result [1] | fold higher FNRL content than in CpcG-PBS, normalised to CpcC1 [2] [fold] | ratio of FNRL content, CpcL-PBS to CpcG-PBS (manual quantification, Protein Metrics) [2] | ratio of FNRL content, CpcL-PBS/CpcG-PBS (PEAKS label-free quantification) [2]
1 | CpcB (phycocyanin beta subunit) (natural protein, UniProt Q54714 1-172, looked up, phycocyanin beta subunit CpcB, Synechocystis sp; PCC 6803; N-terminal peptide 1MFDVFTR found cross-linked through the primary amine of M1; In the assay it stood inside the assembled phycobilisome; also called PC beta subunit; source: endogenous, Synechocystis 6803 wild-type and ΔAB cells; in isolated CpcG-PBS and CpcL-PBS) MFDVFTRVVSQADARGEYLSGSQLDALSATVAEGNKRIDSVNRITGNASAIVSNAARALFAEQPQLIQPGGNAYTSRRMAACLRDMEIILRYVTYATFTGDASVLEDRCLNGLRETYVALGVPGASVAAGVQKMKEAALDIVNDPNGITRGDCSAIVAEIAGYFDRAAAAVA | binds | – | – | –
2 | CpcA (phycocyanin alpha subunit) (natural protein, phycocyanin alpha subunit CpcA, Synechocystis sp; PCC 6803; cross-linked through its N-terminal M1; In the assay it stood inside the assembled phycobilisome; also called PC alpha subunit; source: endogenous, Synechocystis 6803 cells; in isolated phycobilisomes) not shown | binds | – | – | –
3 | B1 | – | 2.4 | 1.9 | 1.99
